Laboratory results as given in article doi:10.1101/2021.03.15.435440 (bioRxiv, 2021).
Read-outs that look alike come from different tables or passages of the source.

What was measured:
wildtype SARS-2 RBD [1] = target: T1, wildtype SARS-2 RBD (SARS-CoV-2, GenBank MN975262.1 …, UniProt A0A679G9E9)
wildtype SARS-2 RBD [2] = target: T1, wildtype SARS-2 RBD; assay: BLI

Row | Binder | binding result (wildtype SARS-2 RBD [1]) | binding result (wildtype SARS-2 RBD [2])
1 | Ab20 (antibody, V domains shown) VH: EVQLQQSGPELVKPGASVKISCKASGFSFTGYSMNWMKQSPEKSLEWIGEINPTTGGTTYNQKFKAKATLTVDKSSSTAYIQLKSLTSEDSAVYYCARGRADYWGQGTTLTVSS VL: DIVLTQSPASLAVSLGQRATISCRASESVEYYGTGLVQWFQQKPGQPPKLLIYAASNVESGVPARFSGSGSGTDFSLNIHSVEEDDIAMYFCHQSRKLPWTFGGGTKLEIK | binds | –
2 | Ab15 (antibody, V domains shown) VH: EVQLQQSGPELVKPGASVKISCKASGYSFTGYYMNWVKQSPEKSLEWIGEINPNFGGTTYNQKFKAKATLTVDKSSSTAYMQLKSLTSEDSAVYYCARYYGNLYAMDYWGQGTSVTVS VL: DILMTQSPSSMSVSLGDTVSITCHASQGISSNIGWLQQKPGKSFKGLIYHGTNLEDGVPSRFSGSGSGAAYSLTISSLESEDFADYYCVQYTHFPYTFGGGTKLEIK | binds | –
3 | Ab16 Fab (Fab, V domains shown) VH: EVQLQQSGPELVKPGASVKISCKASGYSFNNYYMNWVKQSPEKSLEWIGEINPNSGYTSYNQKFRAKATLTVDKSSTTAYMQLKSLTSEDSAVYYCARYFGNLFAMDFWGQGTSVTVS VL: DILMTQSPSSMSVSLGDTVSITCHASQGIGSNIGWLQQKPGKSFKGLIYLGTNLEDGVPSRFSGSGSGADYSLTISSLESEDFADYYCVQYVQFPYTFGGGTKLEIK | – | binds
4 | Ab19 (antibody, V domains shown) VH: QVQLQQSGAELARPGASVKLSCKASGYPFTSYGINWVKQRTGQGLEWIGEIYPRIGNTYYNEKFKGKATLTADKSSSTAYMEFRSLTSEDSAVYFCARSWNSNYGEYYFDYWGQGTTLTVS VL: DIVMTQSHKFMSTSIGDRVSITCKASHDVSTAVAWYQQKPGQSPKLLIYWASTRHTGVPDRFTGSGSGTDYTLTIRSVQAEDLALYYCQQHYSTPYTFGGGTKLEIK | binds | –
